The target in test [1] is T1, monkey CD22 protein (ACROBiosystems, SI2-R52Ha) (monkey (rhesus monkey in paragraph 148), UniProt H9G1X2 18-686).
T1 construct: extracellular domain; also called monkey CD22-ECD; monkey CD22-ECD-His
T1 sequence: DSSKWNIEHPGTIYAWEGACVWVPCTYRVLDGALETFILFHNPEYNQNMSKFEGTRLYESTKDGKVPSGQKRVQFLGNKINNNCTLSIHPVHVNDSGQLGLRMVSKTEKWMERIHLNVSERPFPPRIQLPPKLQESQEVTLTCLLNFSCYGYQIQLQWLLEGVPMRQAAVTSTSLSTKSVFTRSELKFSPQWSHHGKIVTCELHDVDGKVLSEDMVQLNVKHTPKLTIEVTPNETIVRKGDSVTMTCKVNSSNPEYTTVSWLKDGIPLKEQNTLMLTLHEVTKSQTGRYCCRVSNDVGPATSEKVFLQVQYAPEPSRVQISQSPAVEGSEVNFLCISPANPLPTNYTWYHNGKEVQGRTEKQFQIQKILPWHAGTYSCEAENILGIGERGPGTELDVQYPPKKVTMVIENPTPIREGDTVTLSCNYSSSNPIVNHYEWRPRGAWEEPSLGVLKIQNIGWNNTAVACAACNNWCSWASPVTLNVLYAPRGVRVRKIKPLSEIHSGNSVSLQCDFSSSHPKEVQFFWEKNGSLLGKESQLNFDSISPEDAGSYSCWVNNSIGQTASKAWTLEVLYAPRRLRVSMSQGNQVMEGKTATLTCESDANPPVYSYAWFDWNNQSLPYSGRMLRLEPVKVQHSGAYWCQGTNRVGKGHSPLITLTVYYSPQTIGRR
Put plainly: ELISA, monkey CD22-ECD-His coated. An outline of the steps: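 Coat 2 μg/mL CD22 in PBS, overnight 4° C; block PBS/2% BSA 2 h RT. Ab 2 h 37° C; HRP anti-species secondary 2 h 37° C. TMB 30 min RT, stop 1.0 N HCl.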
(In an ELISA, binding on a coated surface is turned into a signal by an enzyme label.)

For test [2], the target named is T2, human CD22-ECD-His protein (human, UniProt P20273 20-687).
T2 construct: Made in house in HEK293E; also called hCD22-ECD-His; recombinant human CD22-ECD His protein; not shown: His tag
T2 sequence: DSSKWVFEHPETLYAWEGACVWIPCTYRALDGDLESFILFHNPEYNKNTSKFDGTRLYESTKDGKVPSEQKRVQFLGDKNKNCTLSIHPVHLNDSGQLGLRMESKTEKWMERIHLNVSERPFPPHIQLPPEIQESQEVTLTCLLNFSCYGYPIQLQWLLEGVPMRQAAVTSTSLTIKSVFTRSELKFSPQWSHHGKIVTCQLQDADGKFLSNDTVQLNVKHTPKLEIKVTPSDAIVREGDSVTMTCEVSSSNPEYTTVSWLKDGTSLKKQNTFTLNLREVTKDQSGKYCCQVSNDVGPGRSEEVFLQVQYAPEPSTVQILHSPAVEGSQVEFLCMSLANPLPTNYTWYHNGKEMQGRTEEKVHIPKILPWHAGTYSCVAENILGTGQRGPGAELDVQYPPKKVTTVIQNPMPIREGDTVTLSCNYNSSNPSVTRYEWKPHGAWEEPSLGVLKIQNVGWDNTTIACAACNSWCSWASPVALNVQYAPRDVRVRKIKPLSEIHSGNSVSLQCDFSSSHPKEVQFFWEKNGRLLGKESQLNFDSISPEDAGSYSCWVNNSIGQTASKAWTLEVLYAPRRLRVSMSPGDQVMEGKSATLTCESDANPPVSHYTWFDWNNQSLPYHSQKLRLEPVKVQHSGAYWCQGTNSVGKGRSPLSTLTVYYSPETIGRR
Put plainly: ELISA, Ab 0.01 nM. The essentials:
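After overnight 4 °C coating with 2 μg/mL CD22-ECD-His and 2 h BSA blocking, wells received antibody, then HRP conjugate (each 2 h, 37 °C). Signal came from TMB, 30 min at room temperature, acid-stopped.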

B1: F1.60.9 (antibody, human IgG1, kappa, V domains shown)
VH: QVQLKESGPGLVAPSQSLSITCTVSGLSLNNYGVSWVRQPPGKGLEWLGVIWGDGSTNYHSALISRLSISKDNSKSQVFLKLNSLHTDDTATYYCAINWGDYWGQGTTLIVSS
VL: DIKMTQSPSSMNASLGERVTITCKASQDINSYLSWFQQKPGKSPKILIYRANRLIDGVPSRFSGSGSGQDYSLTISSLEYEDMGIYYCLQYGVFPLTFGAGTKLELKR
notes: Human-murine chimeric IgG1, kappa
Turning to B1, the binding result in test [1] was “no binding (tested: 100 nM)”. In test [2], this molecule showed an OD450 of 1.75 OD450.

B2: F1.17.1 (antibody, human IgG1, kappa, V domains shown)
VH: QVQLKESGPGLVAPSQSLSITCTVSGFSLSRYTVHWVRQPPGKGLEWLGMIWGGGSTDYNSALKSRLSISKDNSKSQVFLKMNSLQTDDTAMYYCARPHDFDAGGFAYWGQGTLVTVSA
VL: QIVLTQSPAILSTSPGEKVTMTCSASSRVNYMYWYQQKPGSSPRLLIYDTSNLASGVPVRFSGSGSGTSYSLTISRMEAEDAATYYCQQWTSYPLTFGAGTKLELKR
notes: as for B1
In the case of B2, the “EC50 (read off the curve)” value in test [1] was approximately 0.02 nM. Further, in test [2], the OD450 is 1.85 OD450.

B3: F1.245.2 (antibody, human IgG1, kappa, V domains shown)
VH: EVQLQQSGAELVKPGASVKLSCTGSGFNIKDYYIHWVKQRTEQGLEWMGRIDPEDGETEYAPKFQDEATITSDTSSNTAYLQLSSLTYEDTAVYYCAREAAGYFYRGSSYGYFDVWGTGTTVTVSS
VL: DFQMTQTTSFLSASLGDRVTISCSASQDISNYLNWYQQKPDGTVKLLIYYTSSLHSGVPSRFSGSGSGTDYSLTISNLEPEDIATYYCQQYSMLPYTFGGGTKLEMER
notes: as for B1
In the case of B3, in test [1], the binding result is listed as “no binding (tested: 100 nM)”. In test [2], the OD450 was found to be 2.3 OD450.

B4: F2.55.1 (antibody, human IgG1, lambda, V domains shown)
VH: QVTLKESGPGILQPSQTLSLTCSFSGFSLSTFPLGVGWIRQPSGKGLEWLAHVWWNDDDYYNPALKSRLTISKDTSNTRVFLSVASVDTAETATYYCARLNWDRWYFDVWGTGTTVTVSS
VL: QLVLTQSSSASFSLGASAKLTCTLSSQHSAYTVEWYQQQPLKPPKYVMELKKDGSHSTGDGIPDRFSGSSSGADRYLSISNIQPEDEAIYICGVGDTVKEQFVFGGGTKVTVLG
notes: Human-murine chimeric IgG1, lambda
Regarding B4, the “EC50 (read off the curve)” value in test [1] was approximately 0.1 nM. Further, the OD450 in test [2] is 1.3 OD450.

B5: F2.70.2 (antibody, human IgG1, lambda, V domains shown)
VH: EVQLVESGGGLVKPGGSLKLSCAASGFTFSDYGMNWFRQAPEKGLEWVAYISRGSHTIYYADTVKGRFTISRDNAKNTLFLQMTSLRSNDTAMYYCVRMAGYYAMDYWGQGTSVTVSS
VL: QLVLTQSSSASFSLGASAKLTCTLSSQHSSYIIEWYQQQPLKPPKYVMELKKDGSHSTGDGIPDRFSGSSSGADRYLSISNIQPEDEAIYICGVGDTIKEQFVYVFGGGTKVTVLG
notes: as for B4
Take B5: in test [1], the binding result is “no binding (tested: 100 nM)”. The molecule also registered an OD450 in test [2] of 1.56 OD450.

B6: F2.180.16 (antibody, human IgG1, lambda, V domains shown)
VH: EVKLVESGGGLVLPGGSLKISCAASGFTFSDYYMYWIRQTPDKRLEWVAYISNTGYSTFYPDSVKGRFTVSRDNAKNTLYLQMSRLQSEDTAMYYCARHGILYAMDYWGQGTSVTVSS
VL: QPVLTQSSSASFSLGASAKLTCTLSSQYSTYTIGWYQQQPLKPPKYVMELKHDGSRHTGDGIPDRFSGSSSGADRYLSISNIQPEDEATYICGVGDTIKEQFMYVFGGGTKVTVLG
notes: as for B4
As for B6, in test [1], the binding result is given as “no binding (tested: 100 nM)”. The OD450 in test [2] was 1.55 OD450.

B7: F2.104.10 (antibody, human IgG1, lambda, V domains shown)
VH: EVQLVESGGGFVKPGGSLKLSCAASGFTFSDYGMNWFRQAPEKGLEWVAYISRGSHTIYYADTVKGRFTISRDNAENTLFLQMTSLRSNDTAMYYCVRMAGYYAMDYWGQGTSLTVSS
VL: QLVLTQSSSASFSLGASAKLTCTLSSQHSSYIIEWYQQQPLKPPKYVMEVKKDGSHSTGDGIPDRFSGSSSGADRYLSISNIQSEDEAIYICGVGDTIKEQFVYVFGGGTKVTVLG
notes: as for B4
As to B7, the binding result in test [1] was “no binding (tested: 100 nM)”. Also, the OD450 in test [2] turned out to be 1.7 OD450.

B8: F2.343.16 (antibody, human IgG1, lambda, V domains shown)
VH: QVQLKQSGPGLVQPSQSLSITCTVSGFSLTGYGVQWVRQSPGKGLEWLGVIWGGGGTDYNAAFISRLNIIKDNSKSQVFFKMNSLQADDTAIYYCARYSKYGHFDVWGTGTAVTVSS
VL: QAVVTQESALTTSPGETVTLTCRSSTGAVTTSNYANWVQEKPDHLFTGLIGGTYNRVPGVPARFSGSLIGDKAALTITGAQTEDEAIYFCALWYSNHFWVFGGGTKLTVLG
notes: as for B4
Regarding B8, in test [1], the binding result is listed as “no binding (tested: 100 nM)”. The molecule also showed an OD450 in test [2] of 1.29 OD450.

B9: F2.205.9 (antibody, human IgG1, lambda, V domains shown)
VH: QVTLKESGPGILQPSQTLSLTCSFSGFSLSTSGMGVGWIRQPSGKGLEWLAHIWWDDDEYYNPALKSRLTISKDTSKNQVFLKIANVDTADTATYYCARISIPYGYYDWFFDVWGTGTTVTVSA
VL: QAVVTQESALTTSPGETVTLTCRSSTGAVTTRNYANWVQEKPDHLFTGLIGGTNNRAPGVPARFSGSLIGDKAALTITGAQTEDEAIYFCALWYSNHFIFGSGTKVTVLG
notes: as for B4
As to B9, in test [1], the “EC50 (read off the curve)” value was approximately 0.03 nM. This molecule also returned an OD450 in test [2] of 1.48 OD450.

As usually defined, the EC50 (read off the curve) is the concentration at which the effect is half-maximal.

The values above are taken from US20240084003A1 (SIMCERE ZAIMING PHARMACEUTICAL, published 2024).
